Assays:
[1] = molecular target: biotinylated Ub–CycB^N (AviTag–Ub–Cyclin B (1–88)–Cys–6xHis) (UniProt P0CG48); experiment: METRIS (mechanically transduced immunosorbent assay); as a7, surface of Ub–CycB^N, UbV^CDH1 added as competitor (concentration not stated)
[2] = molecular target: biotinylated Ub (biotin maleimide on an N-terminal cysteine) (UniProt P0CG48); experiment: METRIS (mechanically transduced immunosorbent assay); as a7, surface of Ub, UbV^RING and UbV^CDH1 both added as competitors (concentrations not given)
[3] = molecular target: biotinylated Ub–CycB^N (AviTag–Ub–Cyclin B (1–88)–Cys–6xHis) (UniProt P0CG48); experiment: METRIS (mechanically transduced immunosorbent assay); biotinylated APC/C (with or without CDH1) on streptavidin ferromagnetic beads rolling on streptavidin wells coated with biotinylated CycB^N, Ub–CycB^N or Ub; rotating field 1 Hz; rolling parameter (RP); relative measure; no UbV added
[4] = molecular target: biotin–CycB^N* (AviTag–Cyclin B (1–88)–Cys–6xHis, biotinylated, Alexa488-labeled) (UniProt P14635); experiment: as above
[5] = molecular target: biotinylated Ub (biotin maleimide on an N-terminal cysteine) (UniProt P0CG48); experiment: as above

Chain of biotin–CycB^N* (AviTag–Cyclin B (1–88)–Cys–6xHis, biotinylated, Alexa488-labeled) (P14635 other isoform, or with tags, fused parts or gaps): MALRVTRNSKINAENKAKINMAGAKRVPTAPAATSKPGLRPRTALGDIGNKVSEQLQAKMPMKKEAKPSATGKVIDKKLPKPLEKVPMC

biotinylated APC/C^CDH1 (biotinylated APC/C with HaloTag, AviTag and Twin-Strep(II)-tag on APC4, incubated with CDH1 on the beads) (from UniProt Q9UJX6 1-822; P30260 1-824; Q9UJX5 1-808; Q9UJX3 1-565; Q9UJX2 1-595; Q9UM13 4-185; Q9NYG5 1-84; Q9UM11 1-496) (complex)
rolling parameter (RP) with UbV^CDH1 added [1]: 0.19
rolling parameter (RP) with UbV^RING and UbV^CDH1 added [2]: 0.13
rolling parameter (RP) [3]: 0.21
rolling parameter (RP) [4]: 0.15
rolling parameter (RP) [5]: 0.17
